From FireProtDB (doi:10.1073/pnas.0711253105)
“And” between values parts separate entries of the source, which are not always exact repeats. Equal entries are not always repeated.

Conditions: Meleagris gallopavo; pH 8; Thermal; Activity; Tris 20 mM; NaCl 0.4 M; structure 2VT4

Beta-1 adrenergic receptor R68S|M90V|V230A|F327A|A334L, P07700 R68S M90V V230A F327A A334L, sequence (P07700 whole entry R68S/M90V/V230A/F327A/A334L): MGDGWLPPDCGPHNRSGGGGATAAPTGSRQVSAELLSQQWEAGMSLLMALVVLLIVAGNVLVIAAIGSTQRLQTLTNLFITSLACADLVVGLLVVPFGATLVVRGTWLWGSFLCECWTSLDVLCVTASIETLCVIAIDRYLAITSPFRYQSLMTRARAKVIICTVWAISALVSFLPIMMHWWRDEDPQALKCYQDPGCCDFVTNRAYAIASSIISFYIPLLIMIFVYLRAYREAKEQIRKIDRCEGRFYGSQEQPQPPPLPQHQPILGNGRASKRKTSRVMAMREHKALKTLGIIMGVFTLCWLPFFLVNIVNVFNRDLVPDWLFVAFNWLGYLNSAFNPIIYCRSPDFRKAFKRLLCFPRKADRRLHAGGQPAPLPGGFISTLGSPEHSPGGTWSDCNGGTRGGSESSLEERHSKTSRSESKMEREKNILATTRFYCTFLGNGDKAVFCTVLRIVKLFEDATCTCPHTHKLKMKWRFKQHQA
Beta-1 adrenergic receptor G98A|D322A, P07700 G98A D322A, sequence (P07700 whole entry G98A/D322A): as the sequence (P07700 whole entry R68S/M90V/V230A/F327A/A334L) above, with S68R, V90M, G98A, A230V, D322A, A327F, L334A counted along it
Beta-1 adrenergic receptor G67A|G98A, P07700 G67A G98A, sequence (P07700 whole entry G67A/G98A): as the sequence (P07700 whole entry R68S/M90V/V230A/F327A/A334L) above, with G67A, S68R, V90M, G98A, A230V, A327F, L334A counted along it
Beta-1 adrenergic receptor M90V|Y227A|F338M, P07700 M90V Y227A F338M, sequence (P07700 whole entry M90V/Y227A/F338M): as the sequence (P07700 whole entry R68S/M90V/V230A/F327A/A334L) above, with S68R, Y227A, A230V, A327F, L334A, F338M counted along it
Beta-1 adrenergic receptor R68S|Y227A|A234L|A282L, P07700 R68S Y227A A234L A282L, sequence (P07700 whole entry R68S/Y227A/A234L/A282L): as the sequence (P07700 whole entry R68S/M90V/V230A/F327A/A334L) above, with V90M, Y227A, A230V, A234L, A282L, A327F, L334A counted along it
Beta-1 adrenergic receptor M90V|I129V, P07700 M90V I129V, sequence (P07700 whole entry M90V/I129V): as the sequence (P07700 whole entry R68S/M90V/V230A/F327A/A334L) above, with S68R, I129V, A230V, A327F, L334A counted along it
Beta-1 adrenergic receptor R68S|M90V|Y227A|V230A|F327A|A334L, P07700 R68S M90V Y227A V230A F327A A334L, sequence (P07700 whole entry R68S/M90V/Y227A/V230A/F327A/A334L): as the sequence (P07700 whole entry R68S/M90V/V230A/F327A/A334L) above, with Y227A counted along it
Beta-1 adrenergic receptor R68S|M90V|V230A|A334L, P07700 R68S M90V V230A A334L, sequence (P07700 whole entry R68S/M90V/V230A/A334L): as the sequence (P07700 whole entry R68S/M90V/V230A/F327A/A334L) above, with A327F counted along it
Beta-1 adrenergic receptor Y227A|A234L|A334L, P07700 Y227A A234L A334L, sequence (P07700 whole entry Y227A/A234L/A334L): as the sequence (P07700 whole entry R68S/M90V/V230A/F327A/A334L) above, with S68R, V90M, Y227A, A230V, A234L, A327F counted along it
Beta-1 adrenergic receptor R68S|Y227A|A234L|A334L, P07700 R68S Y227A A234L A334L, sequence (P07700 whole entry R68S/Y227A/A234L/A334L): as the sequence (P07700 whole entry R68S/M90V/V230A/F327A/A334L) above, with V90M, Y227A, A230V, A234L, A327F counted along it
Beta-1 adrenergic receptor M90V|Y227A, P07700 M90V Y227A, sequence (P07700 whole entry M90V/Y227A): as the sequence (P07700 whole entry R68S/M90V/V230A/F327A/A334L) above, with S68R, Y227A, A230V, A327F, L334A counted along it
Beta-1 adrenergic receptor G67A|G98A|V230A|D322A, P07700 G67A G98A V230A D322A, sequence (P07700 whole entry G67A/G98A/V230A/D322A): as the sequence (P07700 whole entry R68S/M90V/V230A/F327A/A334L) above, with G67A, S68R, V90M, G98A, D322A, A327F, L334A counted along it
Beta-1 adrenergic receptor R68S|M90V|Y227A|V230A|F327A|F338M, P07700 R68S M90V Y227A V230A F327A F338M, sequence (P07700 whole entry R68S/M90V/Y227A/V230A/F327A/F338M): as the sequence (P07700 whole entry R68S/M90V/V230A/F327A/A334L) above, with Y227A, L334A, F338M counted along it
Beta-1 adrenergic receptor R68S|A234L|A334L, P07700 R68S A234L A334L, sequence (P07700 whole entry R68S/A234L/A334L): as the sequence (P07700 whole entry R68S/M90V/V230A/F327A/A334L) above, with V90M, A230V, A234L, A327F counted along it
Beta-1 adrenergic receptor R68S|A334L, P07700 R68S A334L, sequence (P07700 whole entry R68S/A334L): as the sequence (P07700 whole entry R68S/M90V/V230A/F327A/A334L) above, with V90M, A230V, A327F counted along it
Beta-1 adrenergic receptor M90V|F338M, P07700 M90V F338M, sequence (P07700 whole entry M90V/F338M): as the sequence (P07700 whole entry R68S/M90V/V230A/F327A/A334L) above, with S68R, A230V, A327F, L334A, F338M counted along it
Beta-1 adrenergic receptor G67A|G98A|V230A, P07700 G67A G98A V230A, sequence (P07700 whole entry G67A/G98A/V230A): as the sequence (P07700 whole entry R68S/M90V/V230A/F327A/A334L) above, with G67A, S68R, V90M, G98A, A327F, L334A counted along it

Substance	Tm	change of melting temperature, mutant - wild type (higher = more stable)
Beta-1 adrenergic receptor G67A|G98A, P07700 G67A G98A	35.5 °C	3.8 °C
Beta-1 adrenergic receptor G67A|G98A|V230A, P07700 G67A G98A V230A	38 °C	6.3 °C
Beta-1 adrenergic receptor G67A|G98A|V230A|D322A, P07700 G67A G98A V230A D322A	40.9 °C	9.2 °C
Beta-1 adrenergic receptor G98A|D322A, P07700 G98A D322A	35 °C	3.3 °C
Beta-1 adrenergic receptor M90V|F338M, P07700 M90V F338M	43 °C	11.3 °C
Beta-1 adrenergic receptor M90V|I129V, P07700 M90V I129V	40 °C	8.3 °C
Beta-1 adrenergic receptor M90V|Y227A, P07700 M90V Y227A	45.2 °C	13.5 °C
Beta-1 adrenergic receptor M90V|Y227A|F338M, P07700 M90V Y227A F338M	45.2 °C	13.5 °C
Beta-1 adrenergic receptor R68S|A234L|A334L, P07700 R68S A234L A334L	41.9 °C	10.2 °C
Beta-1 adrenergic receptor R68S|A334L, P07700 R68S A334L	39.1 °C	7.4 °C
Beta-1 adrenergic receptor R68S|M90V|V230A|A334L, P07700 R68S M90V V230A A334L	46.9 °C	15.2 °C
Beta-1 adrenergic receptor R68S|M90V|V230A|F327A|A334L, P07700 R68S M90V V230A F327A A334L	47.3 °C and 48.4 °C	15.6 °C and 16.7 °C
Beta-1 adrenergic receptor R68S|M90V|Y227A|V230A|F327A|A334L, P07700 R68S M90V Y227A V230A F327A A334L	48.2 °C	16.5 °C
Beta-1 adrenergic receptor R68S|M90V|Y227A|V230A|F327A|F338M, P07700 R68S M90V Y227A V230A F327A F338M	49 °C	17.3 °C
Beta-1 adrenergic receptor R68S|Y227A|A234L|A282L, P07700 R68S Y227A A234L A282L	41.6 °C	9.9 °C
Beta-1 adrenergic receptor R68S|Y227A|A234L|A334L, P07700 R68S Y227A A234L A334L	43.7 °C	12 °C
Beta-1 adrenergic receptor Y227A|A234L|A334L, P07700 Y227A A234L A334L	41.6 °C	9.9 °C
